Patent US5861377, “Antistasin type serine protease inhibitors” (Novartis AG, dated 1999)
No end group written: not given here.

Key:
Assay in all cases: enzyme inhibition at equilibrium, steady state velocities fitted to the equation for tight binding inhibitors
[1] = target: porcine tissue kallikrein (porcine, UniProt P00752)
bovine trypsin = bovine trypsin (bovine, UniProt P00760)
human cathepsin G = human cathepsin G (human, UniProt P08311)
human plasmin = human plasmin (human, UniProt P00747)
bovine chymotrypsin = bovine chymotrypsin (bovine, UniProt P00766)

B1: hirustasin (Hirudo antistasin) (other)
chain: TQGNTCGGETCSAAQVCLKGKCVCNEVHCRIRCKYGLKKDENGCEYPCSCAKASQ
modifications: not fully specified; cysteine pairing not given here
Work on B1 yielded a Ki [1] of 13 nM, a Ki (bovine trypsin) of 7 nM and a Ki (human cathepsin G) of 2.9 nM. The Ki (human plasmin) was 138 nM and the Ki (bovine chymotrypsin) was 6.4 nM.
